Results: patent publication US12104178B2, “DHFR tunable protein regulation” (Obsidian Therapeutics, Inc., priority 2017, dated 2024)
Numbering of substitutions follows the chain as printed. Numbers in names are those of the source. Like-named read-outs stand apart in the source and are kept apart here.

B1: OT-RLuc-005: DD regulated Renilla luciferase (protein)
chain: MTSKVYDPEQRKRMITGPQWWARCKQMNVLDSFINYYDSEKHAENAVIFLHGNAASSYLWRHVVPHIEPVARCIIPDLIGMGKSGKSGNGSYRLLDHYKYLTAWFELLNLPKKIIFVGHDWGACLAFHYSYEHQDKIKAIVHAESVVDVIESWDEWPDIEEDIALIKSEEGEKMVLENNFFVETMLPSKIMRKLEPEEFAAYLEPFKEKGEVRRPTLSWPREIPLVKGGKPDVVQIVRNYNAYLRASDDLPKMFIESDPGFFSNAIVEGAKKFPNTEFVKVKGLHFSQEDAPDEMGKYIKSFVERVLKNEQSGGVQVETISPGDGRTFPKRGQTCVVHYTGMLGDGKKVDSSRDRNKPFKFMLGKQEVIRGWEEGVAQMSVGQGAKLTISPDYAYGATGHPGIIPPHATLVFDVELLELE
B2: OT-RLuc-006: DD regulated Renilla luciferase (protein)
chain: MTSKVYDPEQRKRMITGPQWWARCKQMNVLDSFINYYDSEKHAENAVIFLHGNAASSYLWRHVVPHIEPVARCIIPDLIGMGKSGKSGNGSYRLLDHYKYLTAWFELLNLPKKIIFVGHDWGACLAFHYSYEHQDKIKAIVHAESVVDVIESWDEWPDIEEDIALIKSEEGEKMVLENNFFVETMLPSKIMRKLEPEEFAAYLEPFKEKGEVRRPTLSWPREIPLVKGGKPDVVQIVRNYNAYLRASDDLPKMFIESDPGFFSNAIVEGAKKFPNTEFVKVKGLHFSQEDAPDEMGKYIKSFVERVLKNEQSGISLIAALAVDYVIGMENAMPWNLPADLAWFKRNTLNKPVIMGRHTWESIGRPLPGRKNIILSSQPGTDDRVTWVKSVDEAIAACGDVPEIMVIGGGRVIEQFLPKAQKLYLTHIDAEVEGDTHFPDYEPDDWESVFSEFHDADAQNSHSYCFEILERR
B3: OT-RLuc-004: DD regulated Renilla luciferase (protein)
chain: MISLIAALAVDYVIGMENAMPWNLPADLAWFKRNTLNKPVIMGRHTWESIGRPLPGRKNIILSSQPGTDDRVTWVKSVDEAIAACGDVPEIMVIGGGRVIEQFLPKAQKLYLTHIDAEVEGDTHFPDYEPDDWESVFSEFHDADAQNSHSYCFEILERRSGTSKVYDPEQRKRMITGPQWWARCKQMNVLDSFINYYDSEKHAENAVIFLHGNAASSYLWRHVVPHIEPVARCIIPDLIGMGKSGKSGNGSYRLLDHYKYLTAWFELLNLPKKIIFVGHDWGACLAFHYSYEHQDKIKAIVHAESVVDVIESWDEWPDIEEDIALIKSEEGEKMVLENNFFVETMLPSKIMRKLEPEEFAAYLEPFKEKGEVRRPTLSWPREIPLVKGGKPDVVQIVRNYNAYLRASDDLPKMFIESDPGFFSNAIVEGAKKFPNTEFVKVKGLHFSQEDAPDEMGKYIKSFVERVLKNEQ
B4: OT-RLuc-001: constitutive Renilla luciferase construct (protein, listed as Renilla reniformis)
chain: MTSKVYDPEQRKRMITGPQWWARCKQMNVLDSFINYYDSEKHAENAVIFLHGNAASSYLWRHVVPHIEPVARCIIPDLIGMGKSGKSGNGSYRLLDHYKYLTAWFELLNLPKKIIFVGHDWGACLAFHYSYEHQDKIKAIVHAESVVDVIESWDEWPDIEEDIALIKSEEGEKMVLENNFFVETMLPSKIMRKLEPEEFAAYLEPFKEKGEVRRPTLSWPREIPLVKGGKPDVVQIVRNYNAYLRASDDLPKMFIESDPGFFSNAIVEGAKKFPNTEFVKVKGLHFSQEDAPDEMGKYIKSFVERVLKNEQ
B5: OT-hDHFRN-005: hDHFR A125F, Y122I-GFP (protein, UniProt P00374 1-187, looked up, variant A125F Y122I)
Dihydrofolate reductase: MVGSLNCIVAVSQNMGIGKNGDLPWPPLRNEFRYFQRMTTTSSVEGKQNLVIMGKKTWFSIPEKNRPLKGRINLVLSRELKEPPQGAHFLSRSLDDALKLTEQPELANKVDMVWIVGGSSVIKEFMNHPGHLKLFVTRIMQDFESDTFFPEIDLEKYKLLPEYPGVLSDVQEEKGIKYKFEVYEKND
modifications: GFP fusion
notes: hDHFR A125F, Y122I-GFP
B6: OT-hDHFRN-008: hDHFR G21T, Y122I-GFP (protein, UniProt P00374 1-187, looked up, variant G21T Y122I)
Dihydrofolate reductase: B5 Dihydrofolate reductase with G21T, F125A
modifications: GFP fusion
notes: hDHFR G21T, Y122I-GFP
B7: OT-hDHFRN-007: hDHFR L94A, T147A-GFP (protein, UniProt P00374 1-187, looked up, variant L94A T147A)
Dihydrofolate reductase: B5 Dihydrofolate reductase with L94A, I122Y, F125A, T147A
modifications: GFP fusion
notes: hDHFR L94A, T147A-GFP

How the values were obtained:
[1] = cited from earlier work; for Duration of action: in vivo
HCT-116 = assay: Surface expression of IL15-IL15Ra fusion constructs, PE-IL15Ra antibody FACS; assay type: cell-based, human; settings: for Median Fluorescence Intensity, surface IL15-IL15Ra: 24 h
Protocol: Membrane bound-IL15-IL15Ra constructs (OT-IL15-008 to OT IL-15-011) were transduced into human colorectal carcinoma cell line, HCT-116 and stable integrants were selected with 2 μg of puromycin.
Surface expression of IL15-IL15Ra fusion constructs was examined by staining with PE-conjugated IL15Ra antibody (Cat no. 330207, Biolegend, San Diego, CA). The median fluorescence intensity obtained with the different constructs in the presence or absence of the corresponding ligand is presented in Table 53. The stabilization ratio was calculated as the fold change in fluorescence intensity in ligand treated samples compared to treatment with DMSO (i.e. in the absence of ligand) with the same construct. The destabilization ratio was calculated as the fold change in fluorescence intensity in the DD regulated constructs compared to the constitutive construct (OT-IL15-008) in the absence of the ligand. Destabilization ratios less than 1 and stabilization ratios greater than 1 are desired in DDs.
Membrane bound-IL15-IL15Ra constructs (OT-IL15-008 to OT IL15-011) were transduced into human colorectal carcinoma cell line, HCT-116 and stable integrants were selected with 2 μg of puromycin.
Surface expression of IL15-IL15Ra fusion constructs was examined by staining with PE-conjugated IL15Ra antibody (Cat no. 330207, Biolegend, San Diego, CA). The median fluorescence intensity obtained with the different constructs in the presence or absence of the corresponding ligand is presented in Table 55.
The stabilization ratio was calculated as the fold change in GFP intensity in ligand treated samples compared to treatment with DMSO (i.e. in the absence of ligand) with the same construct. The destabilization ratio was calculated as the fold change in GFP intensity in the DD regulated constructs compared to the constitutive construct (OT-IL15-008) in the absence of the ligand. Destabilization ratios less than 1 and stabilization ratios greater than 1 are desired in DDs.

HEK-293T cells = assay: IL15 western blot of DD IL15-IL15Ra, transient transfection; assay type: cell-based, human; settings: 10 μM Trimethoprim or 1 μM Shield-1, 24 h
Protocol: To test ligand dependent IL15-IL15Ra production, 1 million HEK-293T cells were plated in a 6-well plate in growth media containing DMEM and 10 FBS and incubated overnight at 37° C., 5% CO2. […] Cells were harvested and IL15 levels are analyzed via western blotting using human IL15 antibody (Abcam, Cambridge, UK).

HCT-116 cells = assay: DD regulated luciferase, western blot and luciferase activity; assay type: cell-based, human; settings: 1 μM Shield-1 or 10 μM Trimethoprim, 24 h
From the text: DD regulated luciferase can be used to track cells in vivo e.g. T cells. Firefly luciferase or Renilla luciferase may be utilized as the payload. HCT-116 cells were stably transduced with the constitutive (OT-RLuc-001) or DD regulated constructs (OT-RLuc-002, OT-RLuc-003, OT-RLuc-004, OT-RLuc-005 and OT-RLuc-006). […] Blots were also probed with anti-GAPDH antibody to ensure uniform protein loading in all samples. […] (FIG. 59A).
Ligand dependent activity of Renilla and firefly luciferase constructs was measured using coelentrazine and luciferin substrates respectively. […] Luciferase activity was measured as luminescence reading using a luminometer and the values were compared to control samples consisting of lysis buffer and substrate.

hDHFR = assay: Immunoblot of hDHFR WT and mutants after TMP, MTX or DMSO; assay type: cell-based, human; settings: MTX or DMSO 48 h
From the text: The results were consistent using both the AcGFP antibody as well as the hDHFR antibody.

NIH 3T3 cells = assay: hDHFR mutant-GFP reporter stability with DMSO, MTX or TMP (FACS); assay type: cell-based; settings: for GFP intensity Fold Change vs DMSO: 48 h; for Destabilizing mutation co-efficient: GFP intensity vs hDHFR (WT); for Destabilizing mutation co-efficient / Median Fluorescence signal with DMSO: no ligand; for Median Fluorescence signal with DMSO: hDHFR-GFP, DMSO 48 h
From the text: Known destabilizing mutations in E. coli DHFR (ecDHFR) were mapped onto the structure of human DHFR (hDHFR) and corresponding mutations in wild type hDHFR protein were generated using site directed mutagenesis. hDHFR mutants were then fused to a linker, GGSGGG (SEQ ID NO: 2728) and a GFP reporter gene at the N terminus. […] The hDHFR N terminus mutant construct cloned into pLVX. IRES. The reporter constructs were transfected into NIH 3T3 cells. […] DMSO was used as control. Fluorescence signal was measured by FACS and median fluorescence signal intensity was calculated. The destabilizing mutation co-efficient was calculated as the fold change in GFP intensity in the hDHFR mutant constructs compared to the hDHFR (WT) in the absence of the ligand. Destabilizing mutation co-efficients less than 1 are desired in DDs.
Percentage of GFP positive cells as a measure of ligand dependent DD stabilization in each transfection was calculated using FACS Calibur™ (see Table 46).

| Molecule | Luciferase stabilization by western blot (FIG. 59A) (HCT-116 cells) | Protein level stabilization (immunoblot, FIG. 19) (hDHFR) | % GFP positive cells (NIH 3T3 cells; 1 μM MTX) [%] | GFP intensity Fold Change vs DMSO (NIH 3T3 cells; 1 μM MTX) | % GFP positive cells (NIH 3T3 cells; 10 μM TMP) [%] | GFP intensity Fold Change vs DMSO (NIH 3T3 cells; 10 μM TMP) | % GFP positive cells (NIH 3T3 cells; DMSO) [%] | Destabilizing mutation co-efficient (NIH 3T3 cells) | Median Fluorescence signal with DMSO (NIH 3T3 cells) | further results |
| --- | --- | --- | --- | --- | --- | --- | --- | --- | --- | --- |
| CN(Cc1cnc2nc(N)nc(N)c2n1)c1ccc(C(=O)N[C@@H](CCC(=O)O)C(=O)O)cc1 [Methotrexate] |  |  |  |  |  |  |  |  |  | Cmax ([1]; 12 g/m^2 infusion): 1500 nM; Duration of action [1]: >12 h |
| COc1cc(Cc2cnc(N)nc2N)cc(OC)c1OC [Trimethoprim] |  |  |  |  |  |  |  |  |  | Cmax ([1]; IV, approved dose IV 20 mg/kg/6 hr): 25000 nM; Cmax ([1]; PO, approved dose PO up to 20 mg/kg/day): 1000 nM; Duration of action [1]: 2 to 72 h |
| OT-IL15-006: IL15-IL15Ra fusion with ecDHFR (R12Y, E129K) DD |  |  |  |  |  |  |  |  |  | Median Fluorescence Intensity, surface IL15-IL15Ra (HCT-116; 10 μM TMP): 2978; Median Fluorescence Intensity, surface IL15-IL15Ra (HCT-116; DMSO): 764; Stabilization ratio (HCT-116; TMP vs DMSO): 3.90; Destabilization ratio (HCT-116; vs constitutive OT-IL15-008, no ligand): 0.14; IL15 stabilization by western blot (FIG. 24A) (HEK-293T cells): modest ligand dependent stabilization of IL15 |
| B1 | modest stabilization of Renilla luciferase in the presence of their corresponding ligand |  |  |  |  |  |  |  |  |  |
| B2 | modest stabilization of Renilla luciferase in the presence of their corresponding ligand |  |  |  |  |  |  |  |  |  |
| B3 | modest stabilization of Renilla luciferase in the presence of their corresponding ligand |  |  |  |  |  |  |  |  |  |
| B4 | expression of Renilla luciferase both in the presence and absence of ligand |  |  |  |  |  |  |  |  | Luciferase activity (FIG. 59B) (HCT-116 cells): high luciferase activity both in the presence and absence of ligand |
| B5 |  | stabilized following treatment with both MTX and TMP | 89.6 | 26.98 | 54.7 | 6.24 | 0.64 | 0.14 | 2.55 |  |
| B6 |  | stabilization exclusively with MTX | 86.6 | 14.53 | 2.92 | 1.30 | 0.61 | 0.18 | 3.27 |  |
| B7 |  | stabilization exclusively with MTX | 40.7 | 4.46 | 0.52 | 1.00 | 0.26 | 0.15 | 2.67 |  |
